Data from patent US20240400697A1 (NATIONAL RESEARCH COUNCIL OF CANADA, published 2024).

B1: humanized 4E11 antibody hH2-hL2 (antibody, human IgG4 S228P, kappa, V domains shown)
VH: QVQLQESGPGLVKPSQTLSLTCTVSGYSITSDYAWNWIRQPPGKGLEWIGYIGYNGRTSYNPSLKSRVTISRDTSKNQFSLKLSSVTAADTAVYYCARLGRGFAYWGQGTLVTVSS
VL: DIQMTQSPSSLSASVGDRVTITCHASQGINSNIGWLQQKPGKAPKGLIYHGTNLEDGVPSRFSGSGSGTDYTLTISSLQPEDFATYYCVQYAQFPYTFGQGTKLEIKR
B2: humanized 4E11 antibody hH1-hL1 (antibody, human IgG4 S228P, kappa, V domains shown)
VH: QVQLQESGPGLVKPSQTLSLTCTVSGYSITSDYAWNWIRQPPGKGLEWIGYIGYNGRTSYNPSLKSRVTISVDTSKNQFSLKLSSVTAADTAVYYCARLGRGFAYWGQGTLVTVSS
VL: DIQMTQSPSSLSASVGDRVTITCHASQGINSNIGWYQQKPGKAPKLLIYHGTNLEDGVPSRFSGSGSGTDYTLTISSLQPEDFATYYCVQYAQFPYTFGQGTKLEIKR
B3: humanized 4E11 antibody hH1-hL2 (antibody, human IgG4 S228P, kappa, V domains shown)
VH: QVQLQESGPGLVKPSQTLSLTCTVSGYSITSDYAWNWIRQPPGKGLEWIGYIGYNGRTSYNPSLKSRVTISVDTSKNQFSLKLSSVTAADTAVYYCARLGRGFAYWGQGTLVTVSS
VL: DIQMTQSPSSLSASVGDRVTITCHASQGINSNIGWLQQKPGKAPKGLIYHGTNLEDGVPSRFSGSGSGTDYTLTISSLQPEDFATYYCVQYAQFPYTFGQGTKLEIKR
B4: humanized 4E11 antibody hH1-hL3 (antibody, human IgG4 S228P, kappa, V domains shown)
VH: QVQLQESGPGLVKPSQTLSLTCTVSGYSITSDYAWNWIRQPPGKGLEWIGYIGYNGRTSYNPSLKSRVTISVDTSKNQFSLKLSSVTAADTAVYYCARLGRGFAYWGQGTLVTVSS
VL: DIQMTQSPSSLSASVGDRVTITCHASQGINSNIGWLQQKPGKAFKGLIYHGTNLEDGVPSRFSGSGSGTDYTLTISSLQPEDFATYYCVQYAQFPYTFGQGTKLEIKR
B5: humanized 4E11 antibody hH3-hL2 (antibody, human IgG4 S228P, kappa, V domains shown)
VH: QVQLQESGPGLVKPSQTLSLTCTVSGYSITSDYAWNWIRQPPGKGLEWMGYIGYNGRTSYNPSLKSRITISRDTSKNQFSLKLSSVTAADTAVYYCARLGRGFAYWGQGTLVTVSS
VL: DIQMTQSPSSLSASVGDRVTITCHASQGINSNIGWLQQKPGKAPKGLIYHGTNLEDGVPSRFSGSGSGTDYTLTISSLQPEDFATYYCVQYAQFPYTFGQGTKLEIKR
notes: Human IgG4(S228P), C-terminal Lys deleted, human kappa; made in CHO cells; 16) for this name; 17
B6: humanized 4E11 antibody hH3-hL1 (antibody, human IgG4 S228P, kappa, V domains shown)
VH: QVQLQESGPGLVKPSQTLSLTCTVSGYSITSDYAWNWIRQPPGKGLEWMGYIGYNGRTSYNPSLKSRITISRDTSKNQFSLKLSSVTAADTAVYYCARLGRGFAYWGQGTLVTVSS
VL: DIQMTQSPSSLSASVGDRVTITCHASQGINSNIGWYQQKPGKAPKLLIYHGTNLEDGVPSRFSGSGSGTDYTLTISSLQPEDFATYYCVQYAQFPYTFGQGTKLEIKR
notes: Human IgG4(S228P), C-terminal Lys deleted, human kappa; made in CHO cells; 18) for this name; 16
B7: humanized 4E11 antibody hH3-hL3 (antibody, human IgG4 S228P, kappa, V domains shown)
VH: QVQLQESGPGLVKPSQTLSLTCTVSGYSITSDYAWNWIRQPPGKGLEWMGYIGYNGRTSYNPSLKSRITISRDTSKNQFSLKLSSVTAADTAVYYCARLGRGFAYWGQGTLVTVSS
VL: DIQMTQSPSSLSASVGDRVTITCHASQGINSNIGWLQQKPGKAFKGLIYHGTNLEDGVPSRFSGSGSGTDYTLTISSLQPEDFATYYCVQYAQFPYTFGQGTKLEIKR
notes: Human IgG4(S228P), C-terminal Lys deleted, human kappa; made in CHO cells; 17) for this name; 18
B8: humanized 4E11 antibody hH2-hL1 (antibody, human IgG4 S228P, kappa, V domains shown)
VH: QVQLQESGPGLVKPSQTLSLTCTVSGYSITSDYAWNWIRQPPGKGLEWIGYIGYNGRTSYNPSLKSRVTISRDTSKNQFSLKLSSVTAADTAVYYCARLGRGFAYWGQGTLVTVSS
VL: DIQMTQSPSSLSASVGDRVTITCHASQGINSNIGWYQQKPGKAPKLLIYHGTNLEDGVPSRFSGSGSGTDYTLTISSLQPEDFATYYCVQYAQFPYTFGQGTKLEIKR
notes: Human IgG4(S228P), C-terminal Lys deleted, human kappa; made in CHO cells; 16) for this name; 16
B9: humanized 4E11 antibody hH2-hL3 (antibody, human IgG4 S228P, kappa, V domains shown)
VH: QVQLQESGPGLVKPSQTLSLTCTVSGYSITSDYAWNWIRQPPGKGLEWIGYIGYNGRTSYNPSLKSRVTISRDTSKNQFSLKLSSVTAADTAVYYCARLGRGFAYWGQGTLVTVSS
VL: DIQMTQSPSSLSASVGDRVTITCHASQGINSNIGWLQQKPGKAFKGLIYHGTNLEDGVPSRFSGSGSGTDYTLTISSLQPEDFATYYCVQYAQFPYTFGQGTKLEIKR
notes: as for B7
B10: chimeric 4E11 antibody cH-cL (antibody, human IgG4 S228P, kappa, V domains shown)
VH: DVQLQESGPGLVKPSQSLSLTCTVTGYSITSDYAWNWIRQFPGNKLEWMGYIGYNGRTSYNPSLKSRISITRDTSKNQFFLQLNYVTTEDTATFYCARLGRGFAYWGQGTLVTVSA
VL: DILMTQSPSSMSVSLGDTVSITCHASQGINSNIGWLLQKPGKSFKGLIYHGTNLEDGVPSRFSGSGSGTDYSLTISSLESEDFADYYCVQYAQFPYTFGGGTKLEIKR
notes: Murine 4E11 V regions on human IgG4(S228P) heavy chain, C-terminal Lys deleted, and human kappa light chain; made in CHO cells; also called chimeric variant

How the values were obtained:
[1] = biological target: epidermal growth factor receptor variant III (EGFRvIII) (human) (UniProt P00533); experiment: flow cytometry on U87MG-EGFRvIII cells, apparent KD (KD-app), mean of several experiments
[2] = biological target: T1, wild-type epidermal growth factor receptor (EGFR wt) (human, UniProt P00533 25-1210); experiment: flow cytometry on U87MG-EGFR wt cells
T1 construct: whole, on cells; also called wt EGFR; WT EGFR
Method: Cells overexpressing full length wt EGFR or EGFRvIII were obtained from the laboratory of W. Cavanee (Ludwig Institute for Cancer Research, University of California at San Diego). Cells were grown in DMEM high glucose medium containing 10% FBS and 400 μg/ml G418.
Prior to analysis, cells were plated such that they were not more than 80% confluent on the day of analysis. Unless otherwise stated, all media are kept are 4° C. and all incubations are performed on wet ice. Cells were washed in PBS, harvested by the addition of cell dissociation buffer (Sigma), centrifuged and resuspended in complete medium at a cell density of 2×10⁶ cells/mL. […] Cells were washed twice by centrifugation and further incubated with a FITC labeled F(ab′)₂ goat anti-mouse antibody (Fc specific, #115-096-071, Jackson Immunoresearch, Cedarlane) for an hour. Cells were washed and re-suspended in medium containing Propidium iodide to exclude dead cells from analysis. Samples were filtered through a 60 μm nylon mesh filter plate (Millipore) to remove cell aggregates. Flow cytometry analyses were performed on 2,000 viable single-cells events gated on forward scattering, side scattering parameters and propidium iodide dye exclusion using a BD-LSRFortessa flow cytometer (Becton-Dickinson Biosciences) and a standard filter set using BD FACSDiva™ acquisition software, according to manufacturer's instructions.

Binder	Kd [1] [nM]	Bmax @ 300 nM (MFI) [2] [MFI]
B1	10.5	
B2	9.7	
B3	23	
B4	15.7	
B5	7.9	160
B6	4.9	164
B7	7.1	1370
B8	5.8	319
B9	7.2	1420
B10		525
